Consider one molecule from US20030206891A1 (ARIAD GENE THERAPEUTICS, published 2003).

The test has as its target T1, Lex-FKBP (human, UniProt P0A7C2 1-87; P62942 2-108).
T1 construct: range 1-87;range 2-108; Translated in vitro in reticulocyte lysate; also called L87G6FKBP; p19BL87G6FKBP
In words: gel mobility shift with in vitro translated proteins and LexCon DNA probe, rapamycin added.

B1: Lex-FRAP (other, UniProt P0A7C2 1-87, looked up, not shown: small tags and cut ends)
chain: MKALTARQQEVFDLIRDHISQTGMPPTRAEIAQRLGFRSPNAAEEHLKALARKGVIEIVSGASRGIRLLQEEEEGLPLVGRVAAGEPEMWHEGLEEASRLYFGERNVKGMFEVLEPLHAMMERGPQTLKETSFNQAYGRDLMEAQEWCRKYMKSGNVKDLTQAWDLYYHVFRRISK
notes: range 1-87;range 2025-2113; Translated in vitro in reticulocyte lysate; Junction residues from the SpeI-XbaI ligation are not spelled out; also called L87FRB; p19BL87FRB
For the molecule B1, the binding result is on record as “binds”.
